Assay results reported in publication PMC7397744.

Assay: crystallisation trials
Conditions: glycan lost; control: wild type

B1: human lysosomal acid lipase (HLAL): enzymatically deglycosylated (protein)
parent chain: MKMRFLGLVVCLVLWTLHSEGSGGKLTAVDPETNMNVSEIISYWGFPSEEYLVETEDGYILCLNRIPHGRKNHSDKGPKPVVFLQHGLLADSSNWVTNLANSSLGFILADAGFDVWMGNSRGNTWSRKHKTLSVSQDEFWAFSYDEMAKYDLPASINFILNKTGQEQVYYVGHSQGTTIGFIAFSQIPELAKRIKMFFALGPVASVAFCTSPMAKLGRLPDHLIKDLFGDKEFLPQSAFLKWLGTHVCTHVILKELCGNLCFLLCGFNERNLNMSRVDVYTTHSPAGTSVQNMLHWSQAVKFQKFQAFDWGSSAKNYFHYNQSYPPTYNVKDMLVPTAVWSGGHDWLADVYDVNILLTQITNLVFHESIPEWEHLDFIWGLDAPWRLYNKIINLMRKYQ
  other: crystallisability: no change
